Results on eleven molecules are retold here after article PMC12501149 (Proceedings of the National Academy of Sciences of the …, 2025).

Experiment [1] addresses TcdB 1285-1804 with C-terminal Avitag (RBD toxin fragment) (C. difficile, UniProt P18177 1285-1804). Description: SPR. The conditions noted are these: both partners purified.
Experiment [2] addresses TcdB2 (TcdB 027) (C. difficile). Description: cell-based or functional assay.
The target in experiment [3] is full length TcdB (C. difficile, UniProt P18177 1-2366). Description: SPR. The conditions noted are these: both partners purified.
For experiment [4], the target named is T1, biotinylated RBD of TcsL (Paeniclostridium sordellii, UniProt Q46342 1-2364). Nature of the experiment: SPR. The conditions noted are these: both partners purified.
Experiment [5] deals with T1, biotinylated RBD of TcsL. Description: SPR. The conditions noted are these: both partners purified. The source holds these as a separate data set.
The target of experiment [6] is T1, biotinylated RBD of TcsL. Nature of the experiment: SPR. Conditions: both partners purified. This is another data set of the same source.

What is called Kd is a measure of binding affinity in units of concentration. A lower Kd goes with a tighter complex. The term koff denotes the first-order rate constant of dissociation. Usually kon stands for the second-order rate constant of association. The low end stands for slow association, the high end for fast association.

Chain of TcdB 1285-1804 with C-terminal Avitag (RBD toxin fragment) (P18177 1285-1804): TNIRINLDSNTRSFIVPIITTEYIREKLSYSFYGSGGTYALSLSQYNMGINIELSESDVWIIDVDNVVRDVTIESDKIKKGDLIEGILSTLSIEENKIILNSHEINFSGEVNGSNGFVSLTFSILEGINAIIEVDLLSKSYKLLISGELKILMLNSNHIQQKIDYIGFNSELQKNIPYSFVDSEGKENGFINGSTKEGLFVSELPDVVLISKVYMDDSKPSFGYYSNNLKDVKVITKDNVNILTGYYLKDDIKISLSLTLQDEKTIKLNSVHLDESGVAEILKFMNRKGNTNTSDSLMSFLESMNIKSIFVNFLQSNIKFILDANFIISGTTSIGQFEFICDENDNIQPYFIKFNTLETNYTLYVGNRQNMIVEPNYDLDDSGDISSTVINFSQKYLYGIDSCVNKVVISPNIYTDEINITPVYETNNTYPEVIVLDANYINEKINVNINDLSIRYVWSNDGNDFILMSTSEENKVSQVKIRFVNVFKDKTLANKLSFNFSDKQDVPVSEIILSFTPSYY
T1 sequence (Q46342 whole entry): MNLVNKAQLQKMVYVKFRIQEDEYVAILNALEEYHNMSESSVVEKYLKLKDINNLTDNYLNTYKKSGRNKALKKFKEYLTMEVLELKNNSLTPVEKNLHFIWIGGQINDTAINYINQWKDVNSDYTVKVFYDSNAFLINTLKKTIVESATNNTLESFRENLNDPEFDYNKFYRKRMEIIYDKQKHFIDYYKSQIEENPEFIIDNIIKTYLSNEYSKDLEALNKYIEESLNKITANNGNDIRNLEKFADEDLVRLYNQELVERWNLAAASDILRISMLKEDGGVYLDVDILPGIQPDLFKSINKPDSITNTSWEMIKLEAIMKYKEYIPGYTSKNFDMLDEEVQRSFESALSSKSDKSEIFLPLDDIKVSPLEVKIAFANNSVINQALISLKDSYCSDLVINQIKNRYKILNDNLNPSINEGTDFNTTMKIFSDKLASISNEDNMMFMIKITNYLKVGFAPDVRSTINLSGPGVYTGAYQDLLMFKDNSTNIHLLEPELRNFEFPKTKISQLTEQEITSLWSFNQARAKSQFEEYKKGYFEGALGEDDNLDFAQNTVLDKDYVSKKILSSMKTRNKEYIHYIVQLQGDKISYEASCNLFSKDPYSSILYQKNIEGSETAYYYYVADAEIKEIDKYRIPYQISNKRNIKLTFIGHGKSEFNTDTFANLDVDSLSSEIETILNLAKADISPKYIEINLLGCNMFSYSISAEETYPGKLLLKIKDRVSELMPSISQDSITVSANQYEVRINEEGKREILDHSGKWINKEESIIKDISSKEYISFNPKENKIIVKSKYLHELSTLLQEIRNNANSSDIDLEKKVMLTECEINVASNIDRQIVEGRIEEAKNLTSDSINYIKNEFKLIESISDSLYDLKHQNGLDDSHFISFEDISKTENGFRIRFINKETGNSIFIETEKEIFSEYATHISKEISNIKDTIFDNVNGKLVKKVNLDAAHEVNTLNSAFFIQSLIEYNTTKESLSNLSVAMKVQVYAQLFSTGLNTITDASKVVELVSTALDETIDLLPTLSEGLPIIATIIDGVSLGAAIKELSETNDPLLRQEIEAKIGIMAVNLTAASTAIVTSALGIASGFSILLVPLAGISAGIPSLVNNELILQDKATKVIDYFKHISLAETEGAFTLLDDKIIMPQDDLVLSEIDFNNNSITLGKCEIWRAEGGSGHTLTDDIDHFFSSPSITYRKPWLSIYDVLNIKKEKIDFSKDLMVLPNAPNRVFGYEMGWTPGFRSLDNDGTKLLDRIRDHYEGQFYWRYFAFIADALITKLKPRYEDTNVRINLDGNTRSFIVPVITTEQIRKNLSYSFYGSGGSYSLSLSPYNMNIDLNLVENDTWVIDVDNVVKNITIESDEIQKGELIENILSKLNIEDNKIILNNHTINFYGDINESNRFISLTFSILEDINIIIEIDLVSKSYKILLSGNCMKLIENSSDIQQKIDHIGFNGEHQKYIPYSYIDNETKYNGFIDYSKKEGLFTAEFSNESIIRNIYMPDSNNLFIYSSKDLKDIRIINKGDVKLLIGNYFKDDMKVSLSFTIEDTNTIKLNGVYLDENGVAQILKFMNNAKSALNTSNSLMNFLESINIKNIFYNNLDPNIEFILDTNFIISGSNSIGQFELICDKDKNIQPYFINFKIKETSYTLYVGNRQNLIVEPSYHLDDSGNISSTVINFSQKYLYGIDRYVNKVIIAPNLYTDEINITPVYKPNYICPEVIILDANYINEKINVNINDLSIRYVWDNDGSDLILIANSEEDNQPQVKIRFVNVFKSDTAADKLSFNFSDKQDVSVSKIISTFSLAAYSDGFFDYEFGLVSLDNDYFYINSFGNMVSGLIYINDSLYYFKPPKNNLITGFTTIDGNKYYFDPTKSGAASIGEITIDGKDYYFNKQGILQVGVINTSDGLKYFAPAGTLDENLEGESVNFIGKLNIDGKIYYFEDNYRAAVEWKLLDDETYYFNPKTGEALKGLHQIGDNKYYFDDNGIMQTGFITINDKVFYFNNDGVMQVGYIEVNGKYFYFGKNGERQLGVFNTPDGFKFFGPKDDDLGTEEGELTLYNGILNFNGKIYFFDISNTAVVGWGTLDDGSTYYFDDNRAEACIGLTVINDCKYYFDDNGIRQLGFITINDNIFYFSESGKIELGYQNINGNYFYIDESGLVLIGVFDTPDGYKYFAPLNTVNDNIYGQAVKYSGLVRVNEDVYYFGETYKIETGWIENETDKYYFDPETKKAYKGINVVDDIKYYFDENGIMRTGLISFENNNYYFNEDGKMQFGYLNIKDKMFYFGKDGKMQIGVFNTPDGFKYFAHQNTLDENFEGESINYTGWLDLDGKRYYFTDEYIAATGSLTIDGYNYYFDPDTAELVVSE

B1: fzd13 (designed binder)
chain: AEKEVQELIDKALNTPDPKVASKYIISAVYVAAKARDPSLFQSALDTAKKL
In experiment [1], B1 showed a Kd of 5.55 pM, a koff of 0.00014 s⁻¹ and an on-rate constant (kon) of 2.53e+07 M⁻¹ s⁻¹.

B2: cspg67 (designed binder)
chain: AEELAKKLEEMAEVFKEKGDEEGAKECLKAAKIVRRSKNEEFGKWCIKKAEERLKKL
Consider B2, for which the “IC50 of neutralization of TcdB2 in WT Vero cells (CSPG4-dependent entry), Figure S7B; 8-step 3-fold dilution series starting at 40 nM; mean across 2 independent replicates” value in experiment [2] is 1000 pM. In experiment [3], this molecule returned a dissociation constant (Kd) of 1950 pM, a koff of 0.00387 s⁻¹ and an on-rate constant (kon) of 1.99e+06 M⁻¹ s⁻¹.

B3: fzd48 (designed binder)
chain: KEELEKMIEELKKLIENGDKENFIKLFDEAFKKAKESRDPRTIASVWTLVLEFKNKN
For B3, in experiment [1], binding was put at a Kd of 0.00975 pM, the koff was determined as 3.33e-07 s⁻¹ and the kon came out at 3.42e+07 M⁻¹ s⁻¹.

B4: F4 (designed binder)
chain: NEELIKEIKKLLKEGKPASEILELLKKAGKEEIAKEAEKAALSSYDMTKAAAEEAIKKLK
Molecule B4 displayed a dissociation constant (Kd) in experiment [4] of 4230 pM. Moreover, in experiment [5], binding was put at a Kd of 4280 pM, the off-rate constant (koff) was 0.00928 s⁻¹ and the kon is 2.17e+06 M⁻¹ s⁻¹.

B5: B4-M79 (designed binder)
chain: TEEIIKEIKKMKEKGEKASSIIDLLKKAGYSEIAKKAELAALKSENMTEAAAEKAIEELKGSQVKLEESGGGLVQAGGSLKLSCAASGSTFSSSSVGWYRQAPGQQRELVAAITSGGSTNTADSVKGRFTMSRDNAKNTVYLQMRDLKPEDTAVYYCNVAGRNWVPISRYSPGPYWGQGTQVTVSS
In experiment [6], B5 displayed a Kd of 9.9 pM.

B6: cspg4 (designed binder)
chain: ENKLARAVVTVNKSWLATQLFVRLYRLCKAGDPRCEEVAEKLRKVLELQGVPETDIELVVEVAKG
In experiment [3], B6 returned a dissociation constant (Kd) of 1980 pM, a dissociation rate constant (koff) of 0.0378 s⁻¹ and an on-rate (kon) of 1.91e+07 M⁻¹ s⁻¹.

B7: B4 (designed binder)
chain: TEEIIKEIKKMKEKGEKASSIIDLLKKAGYSEIAKKAELAALKSENMTEAAAEKAIEELK
In the case of B7, in experiment [5], binding was put at a Kd of 56.9 pM, the koff stood at 0.000112 s⁻¹ and the association rate constant (kon) stood at 1.98e+06 M⁻¹ s⁻¹.

B8: fzd24 (designed binder)
chain: GEKSKLELLCKMLLTKAKLTGKQKYKNDLKELIEYLNEKGYPDLAKEASAKLEEI
In experiment [1], B8 registered a Kd of 15.3 pM, an off-rate constant (koff) of 0.000649 s⁻¹ and a kon of 4.24e+07 M⁻¹ s⁻¹.

B9: ss2cspg18 (designed binder)
chain: MDEKVEKLKECLEKLKEKGDIKGVIDTERAIRICERSRHKEFCEWAIEKCENRIKES
notes: also called c18; dual disulfide version of cspg18
In experiment [3], B9 gave a dissociation constant (Kd) of 865 pM, an off-rate constant (koff) of 0.00164 s⁻¹ and a kon of 1.9e+06 M⁻¹ s⁻¹.

B10: ss2cspg35 (designed binder)
chain: MDELVEKLKECLEKLKEKGDLKGVKDTERAIRICERSRHKEFCEWAIEKCEARIKES
notes: also called dual disulfide version of cspg35
In experiment [3], B10 had a dissociation constant Kd of 480 pM, a dissociation rate constant (koff) of 8.03e-05 s⁻¹ and an association rate constant (kon) of 167000 M⁻¹ s⁻¹.

B11: ss2cspg27 (designed binder)
chain: MDELVEKLKECLEKLKEKGDIKGVTDTEKAIRICERSRHKEFCEWAIEACEARIKES
notes: also called c27; dual disulfide version of cspg27
In experiment [3], B11 returned an equilibrium dissociation constant (Kd) of 507 pM, an off-rate constant (koff) of 0.000101 s⁻¹ and an on-rate constant (kon) of 199000 M⁻¹ s⁻¹.
